How the values were obtained:
[1] = biological target: human CD47 on the cell surface (CEM, Raji and other human tumor cells, human RBCs) (human) (UniProt Q08722)
[2] = biological target: T1, hCD47-ECD/Fc protein (Sinobiological) (human, UniProt Q08722 19-139, biotinylated in the Octet assay, sites not stated); assay: ELISA, coated hCD47-ECD/Fc
T1 construct: extracellular domain; Bought protein; also called human CD47-Fc antigen; recombinant hCD47-ECD/Fc; not shown: Fc part of the bought fusion protein

[3] = biological target: T1, hCD47-ECD/Fc protein (Sinobiological); assay: ELISA, coated hCD47-ECD/Fc, second independent measurement
Protocol: After blocking, the plates were washed three times and incubated with test antibodies with serial dilution at 37° C. for 1 hour. Then the plates were washed three times and incubated with HRP-conjugated anti-human Fab secondary antibody (Sigma) at 37° C. for 1 hour. After washing three times, the plates were incubated with TMB substrate for 15 minutes at room temperature. The reaction was stopped by the addition of H2SO4 stop solution. Absorbance at 450 nm was measured by a microplate reader. The data were analyzed by GraphPad Prism 7.0.

[4] = biological target: T1, hCD47-ECD/Fc protein (Sinobiological); assay: BLI (Octet RED96), biotin-hCD47-ECD/Fc on SA sensors, 1:1 model;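 also: test antibodies as analytes, 300 s association then 300 s dissociation in running buffer, with benchmark reference antibodies run as controls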
Protocol: (§1) The binding affinity between antibodies and human CD47 was measured through Octet® RED96 System (ForteBio). […] After washing, the sensors were dipped into solutions containing test antibodies for 300 seconds to monitor the association phase, and then were dipped into running buffer for 300 seconds to monitor the dissociation phase. The acquired ForteBio data were processed with Data Acquisition software 7.1, and kinetic data were fitted to a 1:1 Langmuir binding model.

[5] = biological target: T1, hCD47-ECD/Fc protein (Sinobiological); assay: competition ELISA vs biotin-hSIRPα-ECD/His on coated hCD47-ECD/Fc, experiment 1
Protocol: (§2) The plates were washed three times again and incubated with HRP-conjugated streptavidin at 37° C. for 1 hour. After washing, the plates were incubated with TMB substrate for 15 minutes at room temperature. The reaction was stopped by the addition of H2SO4 stop solution. Absorbance at 450 nm was measured by a microplate reader. The data was analyzed by GraphPad Prism 7.0.

[6] = biological target: T1, hCD47-ECD/Fc protein (Sinobiological); assay: BLI (Octet RED96), biotin-hCD47-ECD/Fc on SA sensors, 1:1 model, second independent measurement
Protocol: as §1

[7] = biological target: T1, hCD47-ECD/Fc protein (Sinobiological); assay: competition ELISA vs biotin-hSIRPα-ECD/His on coated hCD47-ECD/Fc, experiment 2
Protocol: as §2

[8] = biological target: T1, hCD47-ECD/Fc protein (Sinobiological); assay: BLI (Octet RED96), biotin-hCD47-ECD/Fc on SA sensors, 1:1 model; ForteBio BLI affinity ranking, not ELISA
Protocol: as §1

| Molecule | EC50 [2] [nM] | Kd [4] [nM] | koff [4] [s⁻¹] | kon [4] [M⁻¹ s⁻¹] | IC50 [5] [nM] | other results |
| --- | --- | --- | --- | --- | --- | --- |
| Neg ctrl (antibody) |  |  |  |  |  | % of events double-positive for CFSE-Raji and BMQC-Jurkat (cell clustering), antibody at 100 nM [1]: 10.3% |
| TY25034 (antibody, V domains shown) VH: EVQLVESGGGLVQPGGSLRLSCAASGYSITSGHYWNWIRQAPGKGLEWIGIISPSGGGTKYAQKFQGRVTISRDNSKNTLYLQLNSLRAEDTAVYYCARGARGYYALDYWGQGTLVTVSS VL: EIVLTQSPATLSLSPGERATLSCRASQSVRGRLLAWYQQKPGQAPRLLIYAASSLQSGVPARFSGSGSGTDFTLTISSLEPEDFAVYYCAQYLELPYTFGQGTKVEIKR | 0.47 | 0.826 | 0.000671 | 813000 | 3.53 | EC50 [3]: 0.41 nM; Kd [6]: 0.87 nM; koff [6]: 0.000704 s⁻¹; kon [6]: 809000 M⁻¹ s⁻¹ |
| TY21447 (antibody, V domains shown) VH: EVQLVESGGGLVQPGGSLRLSCAASGFTFSNYAIHWVRQAPGKGLEWVSAISGSGSSTYYADSVKGRFTISRDNSKNTLYLQLNSLRAEDTAVYYCARRGSYGFGAFDYWGQGTLVTVSS VL: DIQLTQSPSSLSASVGDRVTITCRASQTIGRYLNWYQQKPGKAPKLLIYDASNRATGIPSRFSGSGSGTDFTLTISSLQPEDFATYYCQQRYPWPYTFGQGTKVEIKR | 0.33 |  |  |  |  | IC50 [7]: 3.12 nM |
| TY21449 (antibody, V domains shown) VH: EVQLVESGGGLVQPGGSLRLSCAASGFTFSGYAIHWVRQAPGKGLEWVSAISGSGSSTYYADSVKGRFTISRDNSKNTLYLQLNSLRAEDTAVYYCARRGSYGFGAFDYWGQGTLVTVSS VL: DIQLTQSPSSLSASVGDRVTITCRASQTIGRYLNWYQQKPGKAPKLLIYDASNRATGIPSRFSGSGSGTDFTLTISSLQPEDFATYYCQQRYPWPYTFGQGTKVEIKR |  |  |  |  |  | IC50 [7]: 3.18 nM |
| TY25029 (antibody, V domains shown) VH: EVQLVESGGGLVQPGGSLRLSCAASGYTFSNYWIHWVRQAPGKGLEWIGIIYPSSGSTKYAQKFQGRVTISRDNSKNTLYLQLNSLRAEDTAVYYCARDRAPGSSGYYDGFDYWGQGTLVTVSS VL: DIQLTQSPSSLSASVGDRVTITCRASQSVDFHGISFLHWYQQKPGKAPKLLIYDASSLESGVPSRFSGSGSGTDFTLTISSLQPEDFATYYCHQRSTTPLTFGQGTKVEIKR | 0.58 | 1.51 | 0.000631 | 417000 | > 100 |  |
| TY25031 (antibody, V domains shown) VH: EVQLVESGGGLVQPGGSLRLSCAASGYSITSGYHWGWIRQAPGKGLEWIGRIYPSSGSTKYAQKFQGRVTISRDNSKNTLYLQLNSLRAEDTAVYYCARGVRGSYGWFDVWGQGTLVTVSS VL: DIQLTQSPSSLSASVGDRVTITCSASSRVSYVYWYQQKPGKAPKLLIYAASTLQSGVPSRFSGSGSGTDFTLTISSLQPEDFATYYCQHYVSSPRVYTFGQGTKVEIKR | 0.59 | 0.483 | 8.1e-05 | 168000 | 4.55 | EC50 [3]: 0.6 nM |
| TY25030 (antibody, V domains shown) VH: EVQLVESGGGLVQPGGSLRLSCAASGYSITSGYYWSWIRQAPGKGLEWIGEIYHSGNTYYNPSLKSRVTISRDNSKNTLYLQLNSLRAEDTAVYYCARRVPLGAFDYWGQGTLVTVSS VL: DIQLTQSPSSLSASVGDRVTITCRASQTVISRYLAWYQQKPGKAPKLLIYDASNLETGVPSRFSGSGSGTDFTLTISSLQPEDFATYYCQQYYAWPLTFGQGTKVEIKR | 2.42 | 4.62 | 0.00166 | 361000 | 21.7 |  |
| TY25033 (antibody, V domains shown) VH: QVQLVQSGAEVKKPGSSVKVSCKASGFTFTSYAIHWVRQAPGQGLEWIGIINPNFGSTNYAQKFQGRVTITADKSTSTAYMELSSLRSEDTAVYYCARYYYGASFDVWGQGTLVTVSS VL: DIQLTQSPSSLSASVGDRVTITCKSGQSLLHGDVKTYLYWYQQKPGKAPKLLIYDASNRATGIPSRFSGSGSGTDFTLTISSLQPEDFATYYCQQYASWPPGFTFGQGTKVEIKR | 6.11 | < 0.001 | < 1e-07 | 58900 | > 100 |  |
| TY25032 (antibody, V domains shown) VH: EVQLVESGGGLVQPGGSLRLSCAASGFTFTSYGIHWVRQAPGKGLEWVSAISGSGGSTYYADSVKGRFTISRDNSKNTLYLQLNSLRAEDTAVYYCARSGHAYDFDYWGQGTLVTVSS VL: DIQLTQSPSSLSASVGDRVTITCRASQSVDFYGISFLDWYQQKPGKAPKLLIYAASTLQSGVPSRFSGSGSGTDFTLTISSLQPEDFATYYCQQGGTSPWTFAQGTKVEIKR |  |  |  |  |  | Kd [8]: 2.73 nM; koff [8]: 0.000806 s⁻¹; kon [8]: 295000 M⁻¹ s⁻¹ |
| TY21451 (antibody, V domains shown) VH: EVQLVESGGGLVQPGGSLRLSCAASGFTFSDYWIHWVRQAPGKGLEWVSGISGAGGSTYYADSVKGRFTISRDNSKNTLYLQLNSLRAEDTAVYYCARLGDYWGQGTLVTVSS VL: DIQLTQSPSSLSASVGDRVTITCRASQGISSVLAWYQQKPGKAPKLLIYAASTLQSGVPSRFSGSGSGTDFTLTISSLQPEDFATYYCQQYYSIPFTFGQGTKVEIKR |  |  |  |  |  | IC50 [7]: > 100 nM |

Further lines, with some results ahead:

| EC50 [2] [nM] | Kd [4] [nM] | koff [4] [s⁻¹] | kon [4] [M⁻¹ s⁻¹] | IC50 [5] [nM] | Molecule | other results |
| --- | --- | --- | --- | --- | --- | --- |
| 0.78 | 4.47 | 0.00111 | 249000 | > 100 | TY25038 (antibody, V domains shown) VH: QVQLVQSGAEVKKPGSSVKVSCKASGFTFSRYAIHWVRQAPGQGLEWLGGIIPVFGTANYAQKFQGRVTITADKSTSTAYMELSSLRSEDTAVYYCARQGILGGFAYWGQGTLVTVSS VL: DIQLTQSPSSLSASVGDRVTITCRASESVDFHGKSFLAWYQQKPGKAPKLLIYAASSLQSGVPSRFSGSGSGTDFTLTISSLQPEDFATYYCQQYLELPFTFGQGTKVEIKR |  |
| 2.55 | < 0.001 | < 1e-07 | 171000 | 60.6 | TY25035 (antibody, V domains shown) VH: EVQLVESGGGLVQPGGSLRLSCAASGYSISSGYHWDWIRQAPGKGLEWLARIYWDGDKRYSPSLKSRLTISRDNSKNTLYLQLNSLRAEDTAVYYCARFSDGFDPWGQGTLVTVSS VL: EIVLTQSPATLSLSPGERATLSCRASQSVDFVGISFLHWYQQKPGQAPRLLIYDASNRATGIPARFSGSGSGTDFTLTISSLEPEDFAVYYCVQGLQWPHTFGQGTKVEIKR |  |
| 1.71 | < 0.001 | < 1e-07 | 93700 | > 100 | TY25036 (antibody, V domains shown) VH: QVQLVQSGAEVKKPGSSVKVSCKASGYTFTGYAIHWVRQAPGQGLEWIGWISPSSGSTKYAQKFQGRVTITADKSTSTAYMELSSLRSEDTAVYYCARYGYGPVFDYWGQGTLVTVSS VL: DIQLTQSPSSLSASVGDRVTITCSASSSVTYIYWYQQKPGKAPKLLIYDASNRATGIPSRFSGSGSGTDFTLTISSLQPEDFATYYCQQYTSSPRGFTFGQGTKVEIKR |  |
| 3.66 | 0.141 | 1.37e-05 | 97300 | > 100 | TY25039 (antibody, V domains shown) VH: QVQPAQSGAEVKKPGSSVKVSCKASGYSISSGYYWGWIRQAPGQGLEWIGAISYSGSTYYSPSLKSRVTITADKSTSTAYMELSSLRSEDTAVYYCARHYLFAGSTSYDAFDIWGQGTLVTVSS VL: DIQLTQSPSSLSASVGDRVTITCRASQSVDFYGFSFLAWYQQKPGKAPKLLIYDASNRATGIPSRFSGSGSGTDFTLTISSLQPEDFATYYCQQSYRTPLTFGQGTKVEIKR |  |
| 1.17 |  |  |  | > 100 | TY25041 (antibody, V domains shown) VH: QVQLVQSGAEVKKPGSSVKVSCKASGYSISSGHHWNWIRQAPGQGLEWIGAISYSGSTYYSPSLKSRVTITADKSTSTAYMELSSLRSEDTAVYYCARQGYYGGEGYAVDYWGQGTLVTVSS VL: DIQLTQSPSSLSASVGDRVTITCRASQSVDFYGISFLHWYQQKPGKAPKLLIYDASNRATGIPSRFSGSGSGTDFTLTISSLQPEDFATYYCVQATQTPFTFGQGTKVEIKR |  |
| 0.95 | 0.611 | 3.42e-05 | 56000 | > 100 | TY25037 (antibody, V domains shown) VH: QVQLVQSGAEVKKPGSSVKVSCKASGYSITSGHYWTWIRQAPGQGLEWIGGIIPVFGTPNYAQKFQGRVTITADKSTSTAYMELSSLRSEDTAVYYCASYGYGGAYFDVWGQGTLVTVSS VL: DIQLTQSPSSLSASVGDRVTITCRASQSVDFHGISFLHWYQQKPGKAPKLLIYDASNRATGIPSRFSGSGSGTDFTLTISSLQPEDFATYYCVQGIQWPWTFGQGTKVEIKR |  |
| 0.46 | 0.474 | 0.0002 | 422000 | 3.3 | TY25040 (antibody, V domains shown) VH: QVQLVQSGAEVKKPGSSVKVSCKASGFTFSDYGIHWVRQAPGQGLEWIGRIYPSGGSTNYAQKFQGRVTITADKSTSTAYMELSSLRSEDTAVYYCARQRGYGRFAYWGQGTLVTVSS VL: DIQLTQSPSSLSASVGDRVTITCSASSSVGYVYWYQQKPGKAPKLLIYDASSLESGVPSRFSGSGSGTDFTLTISSLQPEDFATYFCQQYTYAPFTFGQGTKVEIKR | EC50 [3]: 0.39 nM |

Reference: patent US20240417463A1 (ADAGENE PTE, published 2024)
